Measured values published in paper PMC4706430, “In Vitro Mode of Action and Anti-thrombotic Activity of Boophilin, a Multifunctional Kunitz Protease Inhibitor from the Midgut of a Tick Vector of Babesiosis, Rhipicephalus microplus” (PLoS Neglected Tropical Diseases, 2016).

How the values were obtained:
α-thrombin [1] = biological target: T1, α-thrombin (human, UniProt P00734 364-622); test: enzyme inhibition kinetics (chromogenic substrate hydrolysis); Lineweaver-Burk plots and re-plot of the slope against Boophilin concentration; Boophilin (0-1280 nM) with S2238 or S2366 (125-750 μM), then thrombin (0.2 nM) or FXIa (0.5 nM); TBS-BSA pH 7.4; settings: both partners purified
FXIa [2] = biological target: T2, FXIa (human, UniProt P03951 19-387; P03951 388-625); test: as above; settings: both partners purified
T2 construct: coagulation factor XIa heavy chain; coagulation factor XIa light (catalytic) chain; for the Enzyme Research Laboratories FXIa no species is printed; also called Factor XIa; source: bought: Enzyme Research Laboratories (reagents list); bought: Molecular Innovations (protease screen); copies: 2 + 2
T2 sequence (P03951 19-387, chain 1 of 2): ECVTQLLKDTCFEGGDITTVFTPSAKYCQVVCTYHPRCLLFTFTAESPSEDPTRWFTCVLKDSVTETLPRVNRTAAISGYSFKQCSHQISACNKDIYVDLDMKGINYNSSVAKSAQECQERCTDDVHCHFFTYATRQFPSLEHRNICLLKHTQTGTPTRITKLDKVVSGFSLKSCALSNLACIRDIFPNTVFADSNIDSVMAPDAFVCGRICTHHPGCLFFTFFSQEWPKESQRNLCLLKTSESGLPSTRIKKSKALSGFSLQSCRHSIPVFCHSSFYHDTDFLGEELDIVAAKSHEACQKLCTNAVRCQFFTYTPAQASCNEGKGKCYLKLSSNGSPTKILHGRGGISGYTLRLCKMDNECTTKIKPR
T2 sequence (P03951 388-625, chain 2 of 2): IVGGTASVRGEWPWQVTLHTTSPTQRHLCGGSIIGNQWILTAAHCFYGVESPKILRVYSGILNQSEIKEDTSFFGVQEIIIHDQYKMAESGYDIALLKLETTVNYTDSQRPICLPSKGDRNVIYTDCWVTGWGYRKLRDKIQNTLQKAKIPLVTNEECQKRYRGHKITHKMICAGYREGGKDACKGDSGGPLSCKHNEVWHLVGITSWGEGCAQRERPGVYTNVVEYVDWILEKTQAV

α-thrombin [3] = biological target: T1, α-thrombin; test: SPR; Biacore T100; Boophilin immobilised on CM5 by amine coupling (301.4 RU); thrombin (15.625-500 nM) injected 90 s, dissociation 180 s, 30 μL/minute, 25°C, HBS-P pH 7.4; global 1:1 Langmuir fit; α-thrombin, γ-thrombin and PPACK-thrombin also tested at 1 μM as analytes; settings: both partners purified
FXIa [4] = biological target: T2, FXIa; test: enzyme inhibition kinetics (chromogenic substrate hydrolysis); apparent Ki from Vs/Vo against Boophilin concentration (0-640 nM); FXIa (10 nM) pre-incubated 1 hour with Boophilin, then S2366 (250 μM); TBS-BSA pH 7.4; settings: both partners purified
FXIa [5] = biological target: T2, FXIa; test: SPR; Biacore T100; FXIa immobilised on CM5 by amine coupling (1280.4 RU); Boophilin (31.25-500 nM) injected 120 s, dissociation 600 s, 30 μL/minute, 25°C, HBS-P pH 7.4; global 1:1 Langmuir fit; settings: both partners purified
α-thrombin [6] = biological target: T1, α-thrombin; test: cell-based or functional assay
kallikrein = kallikrein (human, UniProt P03952 20-638); test: cell-based or functional assay
Sequence of kallikrein (P03952 20-638): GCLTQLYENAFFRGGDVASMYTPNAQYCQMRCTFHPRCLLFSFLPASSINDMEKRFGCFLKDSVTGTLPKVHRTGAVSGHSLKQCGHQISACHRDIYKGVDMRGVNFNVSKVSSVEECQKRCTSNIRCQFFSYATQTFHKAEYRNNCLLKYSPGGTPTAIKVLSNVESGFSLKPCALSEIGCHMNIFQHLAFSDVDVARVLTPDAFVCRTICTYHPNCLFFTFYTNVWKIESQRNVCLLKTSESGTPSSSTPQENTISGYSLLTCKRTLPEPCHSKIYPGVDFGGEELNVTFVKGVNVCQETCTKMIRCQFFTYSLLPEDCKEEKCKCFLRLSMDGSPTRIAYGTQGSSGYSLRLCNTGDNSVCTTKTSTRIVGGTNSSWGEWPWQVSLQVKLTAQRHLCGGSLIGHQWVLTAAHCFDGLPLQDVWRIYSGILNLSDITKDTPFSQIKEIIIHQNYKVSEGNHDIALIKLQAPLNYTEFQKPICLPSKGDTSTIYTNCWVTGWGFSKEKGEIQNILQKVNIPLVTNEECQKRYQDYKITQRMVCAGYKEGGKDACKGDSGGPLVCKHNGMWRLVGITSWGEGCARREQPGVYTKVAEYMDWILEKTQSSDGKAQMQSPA

B1: Boophilin (natural protein)
chain: QRNGFCRLPADEGICKALIPRFYFNTETGKCTMFSYGGCGGNENNFETIEDCQKACGAPERVSDFEGADFKTGCEPAADSGSCAGQLERWFYNVRSGECETFVYGGCGGNDNNYESEEECELVCKNM
modifications: N-terminus blocked (Edman degradation)
In the case of B1, the Ki (α-thrombin [1]) is reported as 101 nM, the Ki (FXIa [2]) is reported as 115 nM and the Kd (α-thrombin [3]) is reported as 116 nM. The koff (α-thrombin [3]) was 0.36 s⁻¹, the kon (α-thrombin [3]) was 3e+06 M⁻¹ s⁻¹ and the Ki (FXIa [4]) was ~82 nM. The Kd (FXIa [5]) was ~125 nM, the “IC50 of residual amidolytic activity (S-2238) of clot-bound thrombin (Fig 2H)” value (α-thrombin [6]) was ~1000 nM and the “IC50 of thrombin-mediated fibrin formation (thrombin 200 nM, fibrinogen 2 mg/mL; absorbance at 600 nm) (Fig 2G)” value (α-thrombin [6]) was ~1000 nM. The “IC50 of the amidolytic activity of kallikrein (2 nM) on S2302, Boophilin 0-3200 nM, Vs/Vo (Fig 3G)” value (kallikrein) was 919000 nM.
